Laboratory results from US9296994B2, “Archease as RNA ligaes complex member” (IMBA—INSTITUT FÜR MOLEKULARE BIOTECHNOLOGIE GMBH, priority 2012, dated 2016).

Experiments:
[1] = target: T1, FLAG-RTCB, the catalytic subunit of the human tRNA ligase (Homo sapiens, UniProt Q9Y3I0); assay: Assay to monitor Archease function and inhibition of RNA ligase activity (linear intron substrate); format: biochemical; settings: FLAG-RTCB from HEK293 cells with His-tagged Archease, GTP or GMPcPP at 0.5 mM
T1 construct: FLAG; made in house; host or cells: HEK293 cells (FLAG-RTCB)
Procedure: FIG. 14: Assay to monitor inhibition of RNA ligase activity. […] The linear substrate (second from bottom to top) is converted into a circular product (bottom) or a concatemer (top), which is further circularized (third from bottom to top). Ligation only took place with wild-type Archease and GTP.
The RNA ligation activity of FLAG-RTCB, the catalytic subunit of the human tRNA ligase, was determined in the presence of wildtype or mutant (D39A) Archease with the addition of GTP or non-hydrolysable GMPcPP (5′-guanylylmethylenebisphosphonate). […] The reaction was carried out with FLAG-RTCB purified from HEK293 cells and hexahistidine tagged wild-type or mutant Archease. Furthermore, GTP or GMPcPP were used at 0.5 mM concentration. A linear intron derived from a radioactively labelled pre-tRNA that was transcribed with T7 polymerase and cleaved with recombinant tRNA endonuclease from Methanocaldococcus jannaschii served as substrate. Cleavage products were resolved on preparative denaturing polyacrylamide gels and the linear intron was eluted overnight and recovered by precipitation. With reference to FIG. 14, FLAG-RTCB and wild-type Archease in the presence of GTP are able to convert the linear substrate (second from bottom to top) into a circular product (bottom) or a concatemer (top), which is further circularized (third from bottom to top). This type of assay can be used to validate candidate inhibitors of the Archease or even the ligase or to screen compound libraries in order to find inhibitory molecules.

[2] = test system: pre-cleaved tRNA substrates; assay: RNA ligase activity assay of affinity-purified FLAG-tagged Archease on pre-cleaved tRNA substrates; format: biochemical, human; settings: FLAG immuno-precipitate
Procedure: A) Coomassie Blue stained preparations of FLAG-tagged Archease and HSPC117 affinity purified at 150 mM NaCl. B) RNA ligase activity assay of FLAG-HSPC117 and FLAG-Archease using pre-cleaved tRNA substrates. Extracts of HEK 293 cells were used as a negative control. * Indicates unspecific products.
Stable cell lines expressing a FLAG-tagged version of Archease and HSPC117 were generated to perform immuno-precipitations. Fluted FLAG-Archease was assayed for tRNA ligation in parallel with FLAG-HSPC117, which contains the entire tRNA ligase complex.

[3] = test system: cleaved Xbp1 RNA minimal substrate; assay: In vitro Xbp1 splicing (exon ligation) assay with Ire1 pre-cleaved Xbp1 RNA; format: biochemical, human; settings: for Stimulation of ligation of Xbp1 RNA minimal substrates by affinity purified human tRNA ligase complex: addition of recombinant protein
Source text: FIG. 8: The human tRNA ligase HSPC117 and Archease are both required for non-conventional splicing of Xbp1 mRNA during the Unfolded Protein Response (UPR). A) Experimental outline for in vitro splicing assay. B) An internally labeled fragment of Xbp1 mRNA was pre-cleaved with recombinant Ire1 endonuclease and supplemented with buffer or HeLa whole-cell extract (wce) for the indicated time points to allow ligation of exon halves. Formation of splice product is specific to the presence of both Ire1 and cell extract. Lanes marked “unspliced” and “spliced” contain control transcripts to mark the size of the splice product. C) HSPC117 and Archease both contribute to non-conventional splicing. 3′ end labeled Xbp1 was pre-cleaved with Ire1 and supplemented with whole-cell extract from HeLa cells treated with siRNAs as indicated above the lanes. Cell extracts were harvested 72 hrs post transfection. D) Ligase activity for non-conventional splicing resides in HSPC117 but not in Archease. In vitro splicing assay using 3′end labeled Xbp1 carried out using whole cell extract (input) or FLAG-IP from HEK293 cells stably expressing FLAG-HSPC117, FLAG-Archease or FLAG-DDX1. Ligation activity is only found in IPs of integral members of the tRNA ligase complex. E) Non-conventional splicing activity is stimulated by addition of Archease. Splicing assay using 3′ end labeled Xbp1 carried out as above with addition of buffer or recombinant protein as indicated above the lanes. […] Bovine Serum Albumine (BSA) was included as control.
For the splicing assay RNA was prepared by T7-transcrition from PCR product containing spliced and unspliced form of human Xbp1. Substrates were labelled internally using a-GTP and at the 3′end using ligation to pCp. Substrate was pre-cleaved with recombinant Ire1 for 5 mins in tRNA ligation buffer with subsequent addition of protein extract of FLAG-IP eluate to total volume of 5 μl. Samples were treated with proteinase K and phenol-chloroform extracted prior to loading on 10% PAGE gel.
Perturbation of normal ER function causes mis- or unfolded proteins to accumulate leading to activation of the unfolded protein response (UPR). One of three UPR pathway inducers in mammals, the ER transmembrane protein Ire1, cleaves the Xbp1 mRNA specifically to remove a 26 nt intron (FIG. 8A). […] None of the additional four components of the tRNA ligase complex were required for ligation in agreement with previous findings (WO 2012/28606). […] The reduced ligation activity seen in Archease-depleted extracts raised the question whether Archease is an RNA ligase or rather acts to stimulate the ligation activity of other ligases. To address this question stable cell lines expressing FLAG-tagged versions of HSPC117, Archease, and DDX1 (a DEAD-box helicase component of the human tRNA ligase complex) were generated and the Xbp1 ligation assay using FLAG-IPs was performed.
To further address the stimulatory activity of Archease both HSPC117 and Archease were depleted by RNAi and then an Archease rescue-construct containing either WT or MUT Archease was introduced.

[4] = target: T2, human tRNA ligase complex (Homo sapiens, UniProt Q9Y3I0); assay: RNA ligation assay with affinity-purified tRNA ligase complex and added recombinant Archease; format: biochemical; settings: pre-cleaved tRNA substrates or linear intron; time course
T2 construct: FLAG; made in house; Archease expressed in E. coli
Procedure: FIG. 3: Archease boosts RNA ligation by the human tRNA ligase complex. A) Time-course ligation assay with affinity-purified tRNA ligase complex and pre-cleaved tRNA substrates in absence or presence of recombinant Archease. B) Time course ligation assay with affinity purified tRNA ligase complex and isolated linear introns (2.5 μM) in absence or presence of recombinant Archease (8.5 μM) expressed in E. coli. The signals corresponding to the concatemerized intron were quantified and plotted as fraction of the total signal detectable in the respective lane.
FIG. 6: The point mutations D39A and K144A abolish the function of Archease in RNA ligation. A) Time-course of ligation activity of FLAG-HSPC117 complexes upon addition of recombinant wild-type or mutant Archease (15 μM). B) SDS-PAGE analysis of purified recombinant wild-type and mutant Archease.
Addition of Archaease influences ligase activity of affinity purified human tRNA ligase complexes.
To study the function of Archease the available NMR structure from the euryarchaeote Methanothermobacter thermautotrophicus (Yee et al., 2002) (36% identical to human protein) was used and aspartic acid (D) 39 and lysine (K) 144, both extremely conserved residues, were replaced by alanines (D39A; K144A) (FIG. 5). Wild-type and mutant versions of Archease were over-expressed in […] and tRNA ligase activity was measured. […] FIG. 6B confirms equal concentrations of recombinant proteins added to the reactions.

T2 sequence (Q9Y3I0 whole entry): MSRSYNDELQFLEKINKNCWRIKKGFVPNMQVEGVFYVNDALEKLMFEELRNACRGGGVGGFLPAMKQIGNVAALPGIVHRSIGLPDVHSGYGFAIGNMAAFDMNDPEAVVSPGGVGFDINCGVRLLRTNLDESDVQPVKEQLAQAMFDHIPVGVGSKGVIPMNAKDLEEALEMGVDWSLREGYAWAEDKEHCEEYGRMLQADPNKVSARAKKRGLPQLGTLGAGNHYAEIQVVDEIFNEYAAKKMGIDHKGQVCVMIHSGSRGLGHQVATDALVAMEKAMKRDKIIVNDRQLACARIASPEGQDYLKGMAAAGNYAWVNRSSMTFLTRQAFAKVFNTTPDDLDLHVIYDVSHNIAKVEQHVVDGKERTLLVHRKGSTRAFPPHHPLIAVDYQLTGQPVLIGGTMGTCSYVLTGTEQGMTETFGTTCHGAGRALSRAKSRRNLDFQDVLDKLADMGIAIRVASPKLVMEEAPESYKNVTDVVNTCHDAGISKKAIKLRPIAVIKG
T2 sequence (Q92499 whole entry partner): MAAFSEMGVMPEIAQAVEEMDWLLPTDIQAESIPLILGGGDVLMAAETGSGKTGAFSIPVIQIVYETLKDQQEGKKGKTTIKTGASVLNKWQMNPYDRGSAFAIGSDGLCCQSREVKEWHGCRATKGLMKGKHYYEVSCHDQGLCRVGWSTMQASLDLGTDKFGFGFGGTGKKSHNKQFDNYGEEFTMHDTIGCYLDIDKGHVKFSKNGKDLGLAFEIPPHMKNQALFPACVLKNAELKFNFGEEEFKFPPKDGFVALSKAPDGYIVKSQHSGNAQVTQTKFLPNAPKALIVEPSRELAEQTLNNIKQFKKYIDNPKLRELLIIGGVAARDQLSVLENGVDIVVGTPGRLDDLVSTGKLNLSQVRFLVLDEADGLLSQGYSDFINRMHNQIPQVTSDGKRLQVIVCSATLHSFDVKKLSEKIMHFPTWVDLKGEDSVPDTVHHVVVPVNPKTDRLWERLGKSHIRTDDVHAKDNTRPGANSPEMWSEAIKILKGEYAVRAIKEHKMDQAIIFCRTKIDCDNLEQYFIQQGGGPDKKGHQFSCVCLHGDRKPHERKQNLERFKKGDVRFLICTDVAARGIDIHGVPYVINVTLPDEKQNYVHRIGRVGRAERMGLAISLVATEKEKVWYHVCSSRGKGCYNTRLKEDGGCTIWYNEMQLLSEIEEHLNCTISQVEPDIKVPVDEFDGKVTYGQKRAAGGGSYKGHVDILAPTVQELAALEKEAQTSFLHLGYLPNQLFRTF
T2 sequence (Q52LJ0 whole entry partner): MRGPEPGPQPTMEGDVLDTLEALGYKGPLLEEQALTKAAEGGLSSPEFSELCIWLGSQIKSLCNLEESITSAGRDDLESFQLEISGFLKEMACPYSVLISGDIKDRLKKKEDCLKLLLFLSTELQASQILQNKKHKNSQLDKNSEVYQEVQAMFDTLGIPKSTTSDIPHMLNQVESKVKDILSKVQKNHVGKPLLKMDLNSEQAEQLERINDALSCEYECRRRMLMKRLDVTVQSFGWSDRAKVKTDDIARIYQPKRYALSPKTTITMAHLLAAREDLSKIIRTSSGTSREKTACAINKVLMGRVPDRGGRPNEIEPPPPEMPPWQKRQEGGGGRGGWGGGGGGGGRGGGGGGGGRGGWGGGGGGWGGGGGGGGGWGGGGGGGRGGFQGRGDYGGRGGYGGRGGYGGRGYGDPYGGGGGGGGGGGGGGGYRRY
T2 sequence (Q9BVC5 whole entry partner): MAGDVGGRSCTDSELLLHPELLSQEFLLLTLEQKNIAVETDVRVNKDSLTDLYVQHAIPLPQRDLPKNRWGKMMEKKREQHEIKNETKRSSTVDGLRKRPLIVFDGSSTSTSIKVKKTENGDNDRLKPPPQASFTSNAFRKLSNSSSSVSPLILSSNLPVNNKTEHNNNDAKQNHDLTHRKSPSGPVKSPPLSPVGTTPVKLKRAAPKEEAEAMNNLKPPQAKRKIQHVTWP
T2 sequence (Q9Y224 whole entry partner): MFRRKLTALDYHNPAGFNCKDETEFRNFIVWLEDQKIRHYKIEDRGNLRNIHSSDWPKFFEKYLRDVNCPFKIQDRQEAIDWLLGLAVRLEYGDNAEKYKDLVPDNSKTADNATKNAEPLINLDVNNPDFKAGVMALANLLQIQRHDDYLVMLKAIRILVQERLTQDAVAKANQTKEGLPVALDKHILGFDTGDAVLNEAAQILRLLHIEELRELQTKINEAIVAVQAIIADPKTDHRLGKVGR
T1 sequence (Q9Y3I0 whole entry): as the sequence (Q9Y3I0 whole entry) above
T1 sequence (Q92499 whole entry partner): as the sequence (Q92499 whole entry partner) above
T1 sequence (Q52LJ0 whole entry partner): as the sequence (Q52LJ0 whole entry partner) above
T1 sequence (Q9BVC5 whole entry partner): as the sequence (Q9BVC5 whole entry partner) above
T1 sequence (Q9Y224 whole entry partner): as the sequence (Q9Y224 whole entry partner) above

Stimulation of ligation of Xbp1 RNA minimal substrates by affinity purified human tRNA ligase complex [3] | Molecule | RNA ligase activity of affinity purified tRNA ligase complex upon addition of recombinant Archease [4] | other results
– | Nc1nc2c(ncn2[C@@H]2O[C@H](COP(=O)(O)CP(=O)(O)OP(=O)(O)O)[C@@H](O)[C@H]2O)c(=O)[nH]1 [GMPcPP, 5′-guanylylmethylenebisphosphonate] | – | RNA ligation activity of FLAG-RTCB [1]: strongly inhibits the ligation reaction; RNA ligation activity of FLAG-RTCB ([1]; listed as GMPCPP): inhibits the reaction
– | FLAG-tagged Archease: FLAG-tagged version of Archease affinity purified from stable cell lines (protein, left off: small tags and cut ends) MAQEEEDVRDYNLTEEQKAIKAKYPPVNRKYEYLDHTADVQLHAWGDTLEEAFEQCAMAMFGYMTDTGTVEPLQTVEVETQGDDLQSLLFHFLDEWLYKFSADEFFIPREVKVLSIDQRNFKLRSIGWGEEFSLSKHPQGTEVKAITYSAMQVYNEENPEVFVIIDI | – | RNA ligase activity of the affinity-purified protein itself [2]: RNA ligase activity was only detectable in reactions containing affinity-purified RNA ligase complex but not FLAG-tagged Archease; Xbp1 ligation activity of FLAG-IP ([3]; FLAG-IP from stable HEK293 cells): no ligation was detected
inactive | K144A: Archease point mutant, lysine 144 replaced by alanine; inactive (protein, listed as Homo sapiens) MAQEEEDVRDYNLTEEQKAIKAKYPPVNRKYEYLDHTADVQLHAWGDTLEEAFEQCAMAMFGYMTDTGTVEPLQTVEVETQGDDLQSLLFHFLDEWLYKFSADEFFIPREVKVLSIDQRNFKLRSIGWGEEFSLSKHPQGTEVAAITYSAMQVYNEENPEVFVIIDI | neither of the mutant versions of Archease stimulated the low levels of ligation | –
inactive | D39A: Archease point mutant, aspartic acid 39 replaced by alanine; inactive (protein, listed as Homo sapiens) MAQEEEDVRDYNLTEEQKAIKAKYPPVNRKYEYLDHTAAVQLHAWGDTLEEAFEQCAMAMFGYMTDTGTVEPLQTVEVETQGDDLQSLLFHFLDEWLYKFSADEFFIPREVKVLSIDQRNFKLRSIGWGEEFSLSKHPQGTEVKAITYSAMQVYNEENPEVFVIIDI | neither of the mutant versions of Archease stimulated the low levels of ligation | –
